Target: M2 protein of influenza A/Puerto Rico/8/34 (H1N1) on the surface of infected MDCK cells or transfected cells (influenza A virus H1N1 A/Puerto Rico/8/34) (UniProt P06821)
Test: flow cytometry, PR8-infected MDCK cells

Chain of UniProt P06821 (P06821 whole entry): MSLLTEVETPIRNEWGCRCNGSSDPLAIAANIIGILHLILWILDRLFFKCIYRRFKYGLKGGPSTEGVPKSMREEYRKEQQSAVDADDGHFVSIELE

chimeric mouse V-region/human IgG1 kappa 14C2 antibody
EC50 (read off the curve): 0.3 µg/mL
